Test results published in patent US20200040048A1 (published 2020).
Bridge positions count the residues as written; N and C are the ends. Square brackets hold non-standard residues; d marks the D form. dPhe(4-CF3) = N[C@H](Cc1ccc(C(F)(F)F)cc1)C(=O)O; R8 = C=CCCCCCC[C@@](C)(N)C(=O)O; R5 = C=CCCC[C@@](C)(N)C(=O)O; hLeu = CC(C)CC[C@H](N)C(=O)O; S5 = C=CCCC[C@](C)(N)C(=O)O; Cou6 = not defined here; Cou8 = not defined here; βAla = NCCC(=O)O

Columns and labels:
MDM2 = target: T1, MDM2 (UniProt Q00987 1-138, limits assumed); experiment: competitive FP vs FAM-labeled linear peptide, MDM2 41 kD; grade, scale in paragraph 603
T1 construct: also called MDM2 (41 kD); HDM2

MDMX (40 kD), O15151 = target: T2, MDMX (40 kD), O15151; experiment: competitive FP on MDMX, FAM-labeled linear peptide displaced; Ki grade, + = >1000 nM; details: remark: other sources report otherwise
T2 chain: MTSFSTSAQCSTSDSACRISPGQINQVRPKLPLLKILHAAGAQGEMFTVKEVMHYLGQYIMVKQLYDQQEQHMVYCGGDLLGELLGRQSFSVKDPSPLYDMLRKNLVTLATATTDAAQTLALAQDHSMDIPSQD

[1] = target: T3, zebrafish MDMX protein (residues 15-129, L46V/V95L) (zebrafish, UniProt Q7ZUW7 15-129); experiment: X-ray co-crystallography, complex refined to 2.3 Å
T3 construct: Purified on Ni-NT agarose, so it probably carries a His tag from pET15b
T3 sequence (looked up): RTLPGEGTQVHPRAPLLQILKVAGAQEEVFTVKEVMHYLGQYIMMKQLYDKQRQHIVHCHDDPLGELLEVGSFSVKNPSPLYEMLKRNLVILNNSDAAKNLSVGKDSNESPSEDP

T1 sequence (Q00987 1-138 limits assumed): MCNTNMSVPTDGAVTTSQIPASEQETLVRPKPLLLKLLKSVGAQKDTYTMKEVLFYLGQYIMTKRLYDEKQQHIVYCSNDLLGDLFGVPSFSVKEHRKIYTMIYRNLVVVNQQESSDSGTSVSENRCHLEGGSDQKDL

B1: peptidomimetic macrocycle SP 755 (peptide)
peptide: Ac-[dT][dA][dW][dY][dA][dN][dPhe(4-CF3)][dE][R5][dL][dL][dR][R5][dA]-NH2
modifications: staple 9-13
notes: also called Ac-tawyanf4CF3e$r5llr$r5a-NH2
MDM2
  IC50: ≤ 0.01 µM

B2: SP447 Cou8BaLTF$r8EYWAQhL$SAA-NH2 (peptide)
peptide: Cou8-[βAla]LTF[R8]EYWAQ[hLeu][S5]SAA-NH2
modifications: staple 5-12; reading uncertain
MDMX (40 kD), O15151
  Ki: > 1 µM

B3: SP446 Cou6BaLTF$r8EYWAQhL$SAA-NH2 (peptide)
peptide: Cou6-[βAla]LTF[R8]EYWAQ[hLeu][S5]SAA-NH2
modifications: staple 5-12; reading uncertain
MDMX (40 kD), O15151
  Ki: > 1 µM

B4: Ac-QSQQTF%r8NLWRLL%QN-NH2 (peptide)
peptide: QSQQTFANLWRLLAQN
modifications: not fully specified; N-terminal acetyl; C-terminal amide; %r8 at position 7 and % at position 14 are crosslinked alpha-methyl non-natural amino acids forming the i, i+7 aliphatic staple (the token '%' alone is not defined in the filing)
[1]
  binding result: binds
